Laboratory results from PMC4309369 (Cell reports, 2014).
Positions count from the first letter of the chain named. Names may count otherwise.

T1: SND1 (16–339) R316E (human, UniProt Q7KZF4 16-339, R316E)
T1 sequence (looked up): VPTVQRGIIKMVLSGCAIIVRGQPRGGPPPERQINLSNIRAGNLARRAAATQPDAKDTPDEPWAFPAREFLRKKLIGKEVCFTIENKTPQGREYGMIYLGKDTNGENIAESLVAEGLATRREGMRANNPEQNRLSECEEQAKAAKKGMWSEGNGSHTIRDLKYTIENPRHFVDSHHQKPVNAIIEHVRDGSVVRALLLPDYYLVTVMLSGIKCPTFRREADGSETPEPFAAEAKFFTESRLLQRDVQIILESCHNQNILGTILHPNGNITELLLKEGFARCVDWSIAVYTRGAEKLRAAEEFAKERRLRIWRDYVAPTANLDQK

T2: SND1 (16–339) R324E (human, UniProt Q7KZF4 16-339, R324E)
T2 sequence (looked up): T1 sequence (looked up) with E301R, R309E

T3: SND1 (16–339) R324A (human, UniProt Q7KZF4 16-339, R324A)
T3 sequence (looked up): T1 sequence (looked up) with E301R, R309A

T4: SND1 SN1/2 domains (16–339) (human, UniProt Q7KZF4 16-339)
T4 sequence (looked up): T1 sequence (looked up) with E301R

B1: GST-tagged MTDH (364–582) (domain or fragment, human, UniProt Q86UE4 364-582, looked up)
chain: YQWDVSRNQPYIDDEWSGLNGLSSADPNSDWNAPAEEWGNWVDEERASLLKSQEPIPDDQKVSDDDKEKGEGALPTGKSKKKKKKKKKQGEDNSTAQDTEELEKEIREDLPVNTSKTRPKQEKAFSLKTISTSDPAEVLVKNSQPIKTLPPATSTEPSVILSKSDSDKSSSQVPPILQETDKSKSNTKQNSVPPSQTKSETSWESPKQIKKKKKARRET
B2: GST-tagged MTDH (364–582) N403A (domain or fragment, human, UniProt Q86UE4 364-582, looked up)
chain: B1 chain with N40A
B3: GST-tagged MTDH (364–582) E400R (domain or fragment, human, UniProt Q86UE4 364-582, looked up)
chain: B1 chain with E37R
B4: GST-tagged MTDH (364–582) N395A (domain or fragment, human, UniProt Q86UE4 364-582, looked up)
chain: B1 chain with N32A
B5: GST-tagged MTDH (364–582) E400A (domain or fragment, human, UniProt Q86UE4 364-582, looked up)
chain: B1 chain with E37A
B6: GST-tagged MTDH (364–582) D389R (domain or fragment, human, UniProt Q86UE4 364-582, looked up)
chain: B1 chain with D26R

Legend:
SND1 (16–339) R316E = target: T1, SND1 (16–339) R316E; test: pull-down
SND1 (16–339) R324E = target: T2, SND1 (16–339) R324E; test: pull-down
SND1 (16–339) R324A = target: T3, SND1 (16–339) R324A; test: pull-down
[1] = target: T4, SND1 SN1/2 domains (16–339); test: ITC
[2] = target: T4, SND1 SN1/2 domains (16–339); test: pull-down
[3] = target: T4, SND1 SN1/2 domains (16–339); test: crystal structure

| Binder | binding result [2] | further results |
| --- | --- | --- |
| B1 |  | binding result (SND1 (16–339) R316E): binds; binding result (SND1 (16–339) R324E): binds; binding result (SND1 (16–339) R324A): binds; Kd [1]: ~600 nM |
| B2 | binds |  |
| B3 | binds |  |
| B4 | binds |  |
| B5 | binds |  |
| B6 | binds |  |
| SSADPNSDWNAPAEEWGNWVDE (peptide, UniProt Q86UE4 386-407, looked up) [MTDH (386–407)] |  | binding result [3]: binds |
